The values below come from paper PMC4915018, “Brain phosphorylation of MeCP2 at serine 164 is developmentally regulated and globally alters its chromatin association”.

This data set has as its target MeCP2(74-172) WT (human, UniProt P51608 74-172). Briefly: EMSA; subtly but consistently higher affinity for mCG; 10 mM Tris-HCl (pH not given), 50 mM KCl, 0.5 mM MgCl2, 0.1 mM EDTA, 5% glycerol, 0.1 mg/ml BSA, RT 30 min; 0-500 ng protein, 200 ng probe; 6% acrylamide, 1X TAE, ethidium bromide. The note with it: protein: recombinant; blunt. In general terms: In EMSA bound probe runs differently from free probe, usually more slowly.

MeCP2(74-172) WT, sequence (P51608 74-172): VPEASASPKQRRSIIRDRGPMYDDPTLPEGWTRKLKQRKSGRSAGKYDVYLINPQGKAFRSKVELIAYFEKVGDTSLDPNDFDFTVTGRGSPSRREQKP

B1: CpG methylated probe (dsDNA)
DNA 1: CTAAAGGAAAAGTGACGCACTGTTTTACACCTTGGTTTT
DNA 2: AAAACCAAGGTGTAAAACAGTGCGTCACTTTTCCTTTAG
modifications: symmetric methyl-C at the only CpG (C16 of S1, C23 of S2; position inferred, bold marks lost)
Turning to B1, the binding result was “binds”.
